This test concerns the target low-density lipoprotein (LDL), 125I-labelled. Briefly: cell-based or functional assay.

On to “human LDL-receptor (from UniProt P01130 22-860)”, for which the LDL uptake (40 ug/ml 125I-LDL, 4 h, 37 C, FH fibroblasts infected with LDL-receptor adenovirus) turned out to be 20 fold.
For “human LRP5 (LDL-receptor related protein-5), isoform 1 (from UniProt O75197 32-1615)”, the LDL uptake (40 ug/ml 125I-LDL, 4 h, 37 C, FH fibroblasts infected with LRP5 adenovirus) was found to be 60 % increase.

(Values after patent publication US6545137.)
